Results: the supplement of paper PMC10126150
± gives the standard deviation of the averaged measurements.

Tested on: ATP
Test: switch fluorescence ratio, 500 uM ATP over buffer (Cy3 cluster intensity, sum of 5 cycles each) (fold (ratio)); higher = stronger signal-on switching upon ATP binding; sequences stand for … in TCGTCGGCAGCGTCAGATGTGTATAAGAGACAGTTTTTTTTTTTTTTTTTTTTTTTTT…TC
Settings: aptamer strand: ATP DNA aptamer (quencher-CACCTGGGGGAGTATTGCGGAGGAAGG + anchor), 100 nM annealed; ATP concentration: 500 uM
How it was run: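 Between each of five buffer/ATP cycles, the flow-cell was stripped with NaOH and re-annealed. Each cycle imaged Cy3-labelled switching-strand clusters, annealed to 100 nM quencher-labelled ATP aptamer on a modified Illumina MiSeq flow-cell, first in selection buffer and then after 15 min with 500 uM ATP at 22 °C. The fluorescence ratio is summed target-cycle over summed buffer-cycle Cy3 intensity per cluster, averaged per switch-domain sequence, with clusters outside 100-1000 RFU excluded.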
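Note: ATP exposure 15 min at 22 °C before imaging.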

| Sequence | switch fluorescence ratio |
| --- | --- |
| CTCAGGATGT | 1.06 ± 0.026 |
| GGGTGCAAGC | 1.058 ± 0.0049 |
| TCCTCAAATG | 1.607 ± 0.002 |
| TTTTTTGCTA | 1.01 ± 0.026 |
| AATCGTATAG | 0.9817 ± 0.0042 |
| CGGTGAGGGT | 0.9863 ± 0.0071 |
| TGGTAAATAT | 1.01 ± 0.013 |
| CTGGGTTCCT | 1.02 ± 0.024 |
| ATTAAAACTT | 1.05 ± 0.026 |
| TCGCTCTGTT | 0.991 ± 0.011 |
| ATTGATTAGT | 1.12 ± 0.18 |
| GGAACTCGCT | 1.02 ± 0.11 |
| TTTGAGGTCC | 1 ± 0.07 |
| TATAGGTTGG | 1.02 ± 0.031 |
| TTTATCGGTA | 1.01 ± 0.03 |
| AAGGACGGTG | 1.0045 ± 0.00079 |
| ACAGCTGAAG | 1.002 ± 0.0066 |
| CGGTTTTGGC | 0.998 ± 0.019 |
| CAGGTAAGGT | 1.014 ± 0.0035 |
| CAATGGCCGG | 1.02 ± 0.028 |
| GGACCGGTGA | 1.01 ± 0.042 |
| CGATAATCGT | 1.002 ± 0.0098 |
| TTTTATTATT | 0.967 ± 0.01 |

| Sequence | switch fluorescence ratio |
| --- | --- |
| TAAAGAGAGA | 1.03 ± 0.012 |
| GGTGGGAGCT | 1.01 ± 0.075 |
| TTAGATCGGG | 0.989 ± 0.011 |
| CTAGCCAATT | 1.02 ± 0.016 |
| AAGGTGCCGG | 1.0373 ± 0.00076 |
| GGAGAGCATT | 1.039 ± 0.0091 |
| AAGATCTCGC | 0.994 ± 0.025 |
| TTTCGCCAGA | 1.03 ± 0.0044 |
| TTGACTTACT | 1.18 ± 0.085 |
| CAAGGGCGGC | 0.973 ± 0.012 |
| ATGTAAACGC | 1.03 ± 0.038 |
| GGGGAGGGTA | 1.03 ± 0.015 |
| TGGAAAGTTT | 1 ± 0.052 |
| TTGCGAGGTC | 0.985 ± 0.037 |
| AAGGATTAAC | 0.985 ± 0.032 |
| AAGGGCGCTG | 1.01 ± 0.048 |
| AATAATTTCG | 1.007 ± 0.0082 |
| TAATAAGCGG | 0.976 ± 0.035 |
| GAAAAAGCCG | 1.014 ± 0.0078 |
| AAGAGGGCTT | 0.994 ± 0.016 |
| TAGAGAGGGT | 0.995 ± 0.035 |
| TTGTGTGGTT | 0.963 ± 0.038 |
| CCTGGTCCTA | 0.9879 ± 0.0074 |

| Sequence | switch fluorescence ratio |
| --- | --- |
| ATGTGGTCAT | 1.008 ± 0.0065 |
| ACTGCCATCG | 1.1 ± 0.023 |
| TAAGGCACGC | 1.01 ± 0.027 |
| TAGCAGTGGG | 0.973 ± 0.015 |
| CATTTCAGTG | 0.988 ± 0.025 |
| TTCTAGGTAG | 0.991 ± 0.05 |
| GGGGTATTAG | 0.991 ± 0.03 |
| CGTATAAATC | 1.01 ± 0.043 |
| CATGTGTTGT | 0.987 ± 0.014 |
| GGGGGTTTTC | 1.01 ± 0.04 |
| TTGGTGGGTA | 0.988 ± 0.013 |
| ATGCAACCAT | 1.01 ± 0.013 |
| AATGCATCTG | 0.973 ± 0.013 |
| GGTGGGGTAT | 0.98 ± 0.021 |
| ATCGTGATGG | 1.03 ± 0.04 |
| CTGGTTCAGG | 1.026 ± 0.0082 |
| TTTTTAGGCA | 1 ± 0.042 |
| TGGAGGTGTT | 1.03 ± 0.035 |
| CTTTTCGGGT | 0.964 ± 0.033 |
| CCAGAACGAA | 1.037 ± 0.0099 |
| CGATTGGGAC | 1.01 ± 0.02 |
| TTTCGCATGA | 1.223 ± 0.006 |
| AGCCGGCTGC | 1.03 ± 0.024 |

| Sequence | switch fluorescence ratio |
| --- | --- |
| ATAGACGCTA | 1.12 ± 0.017 |
| TTGGGGCTTG | 0.998 ± 0.012 |
| GGGGAAAGGC | 1.02 ± 0.018 |
| TGGATCTTAT | 1.01 ± 0.034 |
| CGTCCACAGG | 2.96 ± 0.092 |
| GGGTTGTGGT | 1.01 ± 0.026 |
| CGAGGTTAGG | 1.06 ± 0.062 |
| TAGGACGTGG | 0.988 ± 0.061 |
| TAATTAGTGG | 0.9832 ± 0.0051 |
| TGGGTTGGGA | 0.991 ± 0.035 |
| ATGGTGGTGG | 1.011 ± 0.0062 |
| AGCTTAAGGG | 0.967 ± 0.02 |
| ATGTAATAGG | 0.995 ± 0.046 |
| TTTAGTTGAC | 0.9956 ± 0.0092 |
| CAGGACTTGT | 0.969 ± 0.02 |
| TGGCAGCAGG | 1 ± 0.024 |
| GATGTAGGGC | 1 ± 0.028 |
| TACGAGCCAC | 1.31 ± 0.032 |
| CGGGAACTCT | 1.013 ± 0.0054 |
| GGAAGTGGGA | 1.018 ± 0.0069 |
| TATAAAGGGT | 1.02 ± 0.055 |
| TTGGTCGGGA | 1.15 ± 0.2 |
| GCGGGGGTG | 1.01 ± 0.013 |

| Sequence | switch fluorescence ratio |
| --- | --- |
| AGGTTCAAAG | 0.959 ± 0.037 |
| ATTCGAATGT | 0.9994 ± 0.0013 |
| AAAATTCTGC | 1.06 ± 0.022 |
| TGATTCAGGG | 1.028 ± 0.0081 |
| CGGAGCTACG | 1.49 ± 0.04 |
| TTTAGTACGT | 1.02 ± 0.057 |
| GCGCTCTTAT | 1.001 ± 0.003 |
| TGCAATTTTT | 1.04 ± 0.077 |
| ATAGATTGCC | 0.993 ± 0.022 |
| GATGTGGGTA | 0.992 ± 0.045 |
| TTAGCACGTC | 1.076 ± 0.0074 |
| GGTGAATAAT | 0.9969 ± 0.0065 |
| TCAAACTGGT | 1.03 ± 0.028 |
| TAGGGGCAGG | 1.07 ± 0.022 |
| AAGCGGGGGT | 1.02 ± 0.026 |
| TGGGTTCTTG | 0.998 ± 0.044 |
| CCAAGCGTGC | 1.76 ± 0.64 |
| TTTCATTGTA | 1.01 ± 0.013 |
| GGGAGGTAAT | 1 ± 0.056 |
| GATTTTATGT | 1.05 ± 0.086 |
| GGGAGGAGTG | 0.98 ± 0.029 |
| ATTGTGTGGG | 0.999 ± 0.036 |
| ATTTTCACC | 1.0095 ± 0.00081 |

| Sequence | switch fluorescence ratio |
| --- | --- |
| TTACGTTCTT | 1.048 ± 0.0096 |
| ATCGGGGGTT | 0.987 ± 0.023 |
| GATGGGCGGG | 1.03 ± 0.055 |
| CGGTTAGGGA | 0.965 ± 0.03 |
| GAGGGGGAAA | 1.02 ± 0.031 |
| ATTGTGTTAG | 1.03 ± 0.055 |
| TAACACAGTC | 1.04 ± 0.054 |
| GAGCAGGGGG | 1.01 ± 0.042 |
| TATATTACAG | 1.05 ± 0.028 |
| TTTTGCGGGG | 1.08 ± 0.15 |
| TTATGTGACG | 0.994 ± 0.082 |
| TTTTTTACGA | 1.04 ± 0.028 |
| ACTTAAAATT | 0.996 ± 0.044 |
| AATTTTTAAA | 0.968 ± 0.038 |
| CTTCATAGAT | 1.02 ± 0.016 |
| ATAGTAGGGG | 0.994 ± 0.045 |
| ATTTTCGGGG | 1.01 ± 0.039 |
| GTGGGGGGAT | 0.999 ± 0.023 |
| TTTGTAGGCG | 0.983 ± 0.13 |
| CTAAGAGGAC | 0.9921 ± 0.0033 |
| TCTGTTTGTA | 0.9816 ± 0.0075 |
| ACCAGATCAC | 1.04 ± 0.019 |
| ACTATTACGG | 1.18 ± 0.0094 |

| Sequence | switch fluorescence ratio |
| --- | --- |
| ATCAGGAAAA | 1.02 ± 0.071 |
| AGGAAAAAGG | 0.974 ± 0.034 |
| AATGACAGGG | 0.988 ± 0.02 |
| GGGCCCATTG | 0.963 ± 0.04 |
| CGATGTAGTT | 0.995 ± 0.014 |
| ACAGGGTTAC | 0.991 ± 0.027 |
| TTCACATACG | 1.51 ± 0.03 |
| CTGGTTCGTC | 1.005 ± 0.0071 |
| AAAAAAAATG | 0.9991 ± 0.0042 |
| TCGTGGCGGA | 0.979 ± 0.011 |
| GCATATGGTT | 0.988 ± 0.016 |
| AGAGGTTATT | 0.9994 ± 0.0069 |
| GGGGTTCTTT | 1.09 ± 0.14 |
| AGGGTAAATT | 1.03 ± 0.053 |
| TTGTGTGGGT | 0.993 ± 0.02 |
| ATTGGAAGGC | 0.967 ± 0.017 |
| AGACTGGGCT | 1.01 ± 0.011 |
| AGTTACGAAA | 1.11 ± 0.025 |
| GCCAAAGGTG | 1.72 ± 0.12 |
